{
  "source": "paper PMC12733242",
  "about": "“The Functional Role of Gate Loop Residues in Arrestin Binding to GPCRs” (International Journal of Molecular Sciences, 2025)",
  "binders": {"B1": {"name": "bovine arrestin-1 with deletion of Gly292 (natural protein)", "chain": "MKANKPAPNHVIFKKISRDKSVTIYLGKRDYIDHVERVEPVDGVVLVDPELVKGKRVYVSLTCAFRYGQEDIDVMGLSFRRDLYFSQVQVFPPVGASGATTRLQESLIKKLGANTYPFLLTFPDYLPCSVMLQPAPQDVGKSCGVDFEIKAFATHSTDVEEDKIPKKSSVRLLIRKVQHAPRDMGPQPRAEASWQFFMSDKPLRLAVSLSKEIYYHGEPIPVTVAVTNSTEKTVKKIKVLVEQVTNVVLYSSDYYIKTVAAEEAQEKVPPNSSLTKTLTLVPLLANNRERRIALDGKIKHEDTNLASSTIIKEGIDKTVMGILVSYQIKVKLTVSGLLGELTSSEVATEVPFRLMHPQPEDPDTAKESFQDENFVFEEFARQNLKDAGEYKEEKTDQEAAMDE", "modifications": "[14C]leucine incorporated", "notes": "arrestin-1, bovine; bovine residue numbers; source: cell-free translation, radiolabelled; translation mix after centrifugation"}},
  "key": {"[1]": {"molecular_target": "T1, phosphorylated light-activated bovine rhodopsin (bovine, UniProt P02699 1-348, phosphorylated by endogenous rhodopsin kinase (GRK1), on average 2.6 phosphates per rhodopsin (sites not determined; the C-terminus has seven phosphorylatable serines and threonines); regenerated …)", "T1 construct": "rhodopsin, bovine, wild type, in native disk membranes; Native protein; also called P-Rh*", "T1 sequence (P02699 whole entry)": "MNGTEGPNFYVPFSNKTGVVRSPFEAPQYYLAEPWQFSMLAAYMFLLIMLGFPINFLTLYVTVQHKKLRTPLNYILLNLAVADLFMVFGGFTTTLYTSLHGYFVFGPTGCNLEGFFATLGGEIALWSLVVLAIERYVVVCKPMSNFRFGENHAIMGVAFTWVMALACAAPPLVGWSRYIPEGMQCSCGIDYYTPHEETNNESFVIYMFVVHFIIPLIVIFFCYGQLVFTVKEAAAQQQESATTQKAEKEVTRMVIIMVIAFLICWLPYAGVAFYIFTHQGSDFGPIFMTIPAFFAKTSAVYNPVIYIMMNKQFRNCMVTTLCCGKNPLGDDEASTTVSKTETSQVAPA", "experiment": "radioligand binding; direct binding assay: 1 nM [14C]leucine-labelled arrestin-1 (50 fmol) from cell-free translation incubated with 0.3 μg of P-Rh* or Rh* (7.8 pmol) in 50 mM Tris-HCl pH 7.4, 100 mM potassium acetate, 1 mM EDTA, 1 mM DTT, 5 min at 37 °C under room light; bound arrestin separated with rhodopsin-containing membranes by gel filtration on Sepharose CL-2B at 4 °C, scintillation counting; binding in …", "conditions": "one partner purified"}, "[2]": {"molecular_target": "T2, unphosphorylated light-activated bovine rhodopsin (bovine, UniProt P02699 1-348, light-activated)", "T2 construct": "rhodopsin, bovine, wild type, in native disk membranes; Native protein; source: purified bovine rhodopsin in native disk membranes, unphosphorylated", "T2 sequence (P02699 whole entry)": "as above", "experiment": "radioligand binding; direct binding assay: 1 nM [14C]leucine-labelled arrestin-1 (50 fmol) from cell-free translation incubated with 0.3 μg of P-Rh* or Rh* (7.8 pmol) in 50 mM Tris-HCl pH 7.4, 100 mM potassium acetate, 1 mM EDTA, 1 mM DTT, 5 min at 37 °C under room light; bound arrestin separated with rhodopsin-containing membranes by gel filtration on Sepharose CL-2B at 4 °C, scintillation counting; binding in …", "conditions": "one partner purified"}},
  "data": [
    {"binder": "B1", "values": [
      {"measurement": "increase of binding over WT", "setting": "[1]", "result": 38, "unit": "%"},
      {"measurement": "increase of binding over WT", "setting": "[2]", "result": 156, "unit": "%"}
    ]}
  ]
}
